Source: paper PMC8511049, “hSSB2 (NABP1) is required for the recruitment of RPA during the cellular response to DNA UV damage”

Experiments:
[1] = target: T1, hSSB2-OB (NABP1 OB domain) (human, UniProt Q96AH0 1-132); test: SPR competition; competes with immobilised biotinylated wild-type ssDNA; 2 mM MgCl2; SPR: 20 mM Tris pH 7.0, 50 mM NaCl, 2 mM MgCl2, 0.01% P20, 2 mM DTT; EMSA: 20 mM Tris pH 7.5, 100 mM NaCl, 1 mM DTT, 100 µg/mL BSA, 37 °C; agarose shift: 10 mM; settings: protein: recombinant; tags: GST tag (pGEX-6P) removed by HRV3C protease; blunt, central 2-nt mismatch (TT opposite CC; S3 positions 11-12)
T1 sequence (Q96AH0 1-132): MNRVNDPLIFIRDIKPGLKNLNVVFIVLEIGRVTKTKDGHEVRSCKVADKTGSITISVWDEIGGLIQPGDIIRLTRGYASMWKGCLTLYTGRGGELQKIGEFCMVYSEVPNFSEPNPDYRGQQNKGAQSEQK

[2] = target: T1, hSSB2-OB (NABP1 OB domain); test: SPR competition; competes with immobilised biotinylated wild-type ssDNA; value only in figure; 2 mM MgCl2; SPR: 20 mM Tris pH 7.0, 50 mM NaCl, 2 mM MgCl2, 0.01% P20, 2 mM DTT; EMSA: 20 mM Tris pH 7.5, 100 mM NaCl, 1 mM DTT, 100 µg/mL BSA, 37 °C; agarose shift: 10 mM; settings: protein: recombinant; tags: GST tag (pGEX-6P) removed by HRV3C protease; single strand
[3] = target: T1, hSSB2-OB (NABP1 OB domain); test: SPR competition; almost same affinity as undamaged GATTGC; value only in figure; 2 mM MgCl2; SPR: 20 mM Tris pH 7.0, 50 mM NaCl, 2 mM MgCl2, 0.01% P20, 2 mM DTT; EMSA: 20 mM Tris pH 7.5, 100 mM NaCl, 1 mM DTT, 100 µg/mL BSA, 37 °C; agarose shift: 10 mM; settings: protein: recombinant; tags: GST tag (pGEX-6P) removed by HRV3C protease; single strand
[4] = target: T1, hSSB2-OB (NABP1 OB domain); test: EMSA; SPR: 20 mM Tris pH 7.0, 50 mM NaCl, 2 mM MgCl2, 0.01% P20, 2 mM DTT; EMSA: 20 mM Tris pH 7.5, 100 mM NaCl, 1 mM DTT, 100 µg/mL BSA, 37 °C; agarose shift: 10 mM; settings: protein: recombinant, tags: GST tag (pGEX-6P) removed by HRV3C protease, label: 32P

B1: 23mer duplex with 2-nt bubble (dsDNA)
DNA 1: CGAACGATCATTACTAGCTCCAA
DNA 2: TTGGAGCTAGTCCTGATCGTTCG
[1]
  Ki: 1000 nM

B2: 6mer GATTGC wild-type (ssDNA)
DNA: GATTGC
[2]
  binding result: binds

B3: 6mer GATTGC with CPD (ssDNA)
DNA: GATTGC
modifications: cyclobutane pyrimidine dimer between T3 and T4
[3]
  binding result: binds

B4: 50mer ssDNA (EMSA) (ssDNA)
DNA: CCTCGAGGGATCCGTCCTAGCAAGCCGCTGCTACCGGAAGCTTCTGGACC
[4]; single strand
  binding result: binds

B5: 50 bp dsDNA (EMSA) (dsDNA)
DNA 1: CCTCGAGGGATCCGTCCTAGCAAGCCGCTGCTACCGGAAGCTTCTGGACC
DNA 2: GGTCCAGAAGCTTCCGGTAGCAGCGGCTTGCTAGGACGGATCCCTCGAGG
[4]; blunt
  binding result: no binding
